Measured values published in PMC7937711, “Development and Characterization of Nanobodies Targeting the Kupffer Cell” (Frontiers in Immunology, 2021).
Changes are numbered by the printed parent chain.

T1: recombinant mouse Clec4F (CLEC4F/CLECSF13), soluble extracellular domain Ala65-Gly548 (mouse) (UniProt P70194)
T1 sequence: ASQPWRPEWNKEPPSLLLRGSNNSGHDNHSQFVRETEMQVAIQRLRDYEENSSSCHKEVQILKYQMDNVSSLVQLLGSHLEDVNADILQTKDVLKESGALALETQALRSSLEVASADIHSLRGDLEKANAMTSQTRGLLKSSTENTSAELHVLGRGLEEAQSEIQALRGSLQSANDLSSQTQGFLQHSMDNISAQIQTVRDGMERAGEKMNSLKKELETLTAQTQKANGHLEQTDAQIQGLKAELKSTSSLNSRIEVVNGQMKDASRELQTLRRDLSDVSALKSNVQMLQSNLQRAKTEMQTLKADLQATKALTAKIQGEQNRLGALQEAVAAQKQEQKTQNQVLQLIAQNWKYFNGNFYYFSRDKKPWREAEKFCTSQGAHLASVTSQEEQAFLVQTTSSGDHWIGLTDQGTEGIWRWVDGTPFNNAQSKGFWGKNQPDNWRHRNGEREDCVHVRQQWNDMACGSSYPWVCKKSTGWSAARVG

B1: Nb1.46 (VHH)
VHH: QVQLVESGGGLVQAGGSLRLSCAASGRTFSSYAMGWFRQAPGKERECVAAMDWSTSATYYADSVKGRFTISRDNAKNTVYLQMNSLKPEDTAVYYCAADLDYSDYGPFPGDMDYWGKGTQVTVSS
notes: The preparation held dimers beside monomers (SDS-PAGE); extra cysteine at position 52 (IMGT); also called R2-46; group G1; source: E. coli WK6 periplasm, purified (IMAC Ni-NTA, dialysis); not shown: His6, C-terminal, kept
B2: Nb5.10 (VHH)
VHH: QVQLVESGGGLVQPGGSLRLSCAANVSSFRFAAMGWYRQVQGKRRELVATITRDGVSNYVEPMKGRFTISRDNGKNTVYLQMNHLQPEDTAVYYCAAKISPFGGTWTPDYWGQGTQVTVSS
notes: also called R3-10; group G5; source: E. coli WK6 periplasm, purified (IMAC Ni-NTA, dialysis)
B3: Nb12.75 (VHH)
VHH: QVQLVESGGGLVQAGGSLRLSCAASLRTFSNAMGWFRQAPGKEREFVAVITWSGRVTNYSDSVKGRFTISKDNAKNTMYLQMNSLKLEDTAVYFCARESTFATANPKDYAYWGQGTQVTVSS
notes: also called R2-75; group G12; source: E. coli WK6 periplasm, purified (IMAC Ni-NTA, dialysis)
B4: Nb6.18 (VHH)
VHH: DVQLGESGGGLVQPGGSLRLSCAASGFTFSSYAMRWVRQAPGKALEWVADINSSGAYTNYRDSVTGRFIISRDNVKNTLYLQMDNMKPEDTAVYYCTTGGQRGQGTQVTVSS
notes: also called R3-18; group G6; source: E. coli WK6 periplasm, purified (IMAC Ni-NTA, dialysis)
B5: Nb3.60 (VHH)
VHH: QVQLVESGGGLVQPGGSLRLSCVASGTIFSMYGVYWYRQAPGNQREVVAWISSSGNTNYVNAVKGRFTISRDNAKNTTWLQMHSLKPEDAAVYYCRLGMNYWGKGTQVTVSS
notes: The preparation held dimers beside monomers (SDS-PAGE); also called R2-60; group G3; source: E. coli WK6 periplasm, purified (IMAC Ni-NTA, dialysis)
B6: Nb10.21 (VHH)
VHH: QVQLVESGGGLVQAGGSLRLSCAASGRTFSSYNMGWFRQAPGKEREFVATISRNGAGTYYTDSVKGRFTISRDNAKNTVYLQMNNLKPEDSAAYYCAATQRVALSTITVGGYEYWGQGTQVTVSS
notes: also called R2-21; group G10; source: E. coli WK6 periplasm, purified (IMAC Ni-NTA, dialysis)
B7: Nb10.17 (VHH)
VHH: B6 VHH with S30D, N54S, V79M, Q100L, E113D, Y114I
notes: also called R3-17; group G10; source: E. coli WK6 periplasm, purified (IMAC Ni-NTA, dialysis)
B8: Nb10.16 (VHH)
VHH: B6 VHH with Q1D, Q13E, A14P, S31D, T58S, Q100L, E113D
notes: Labelled with 99mTc through its His tag for the biodistribution test only; also called R2-16; group G10; source: E. coli WK6 periplasm, purified (IMAC Ni-NTA, dialysis; size exclusion chromatography for the later tests); not shown: His6, C-terminal, kept
B9: Nb10.66 (VHH)
VHH: B6 VHH with Q1D, S31D, N54S, A56G, T61S, Q100L, E113N
notes: also called R2-66; group G10; source: E. coli WK6 periplasm, purified (IMAC Ni-NTA, dialysis)
B10: Nb9.15 (VHH)
VHH: QVQLVESGGGLVQPGGSLRLSCAASGFSLASRTIAWFRQAPGKEREGVSCISRSGAFTNNADSVKGRFTISRDNAKNTVYLQMNSLKPEDTADYYCAVTSSWYSTCLRESIYDSWGQGTQVTVSS
notes: also called R3-15; group G9; source: E. coli WK6 periplasm, purified (IMAC Ni-NTA, dialysis)
B11: Nb6.4 (VHH)
VHH: QVQLVESGGGLVQPGGSLTLSCAASGFTISNYAMKWDRQAPGKGFEWVSTINSDGDNTSYRDSVKGRFTISRDNAKNTLYLQMNSLKPEDTAVYYCSNGGRRGQGTQVTVSS
notes: also called R3-4; group G6; source: E. coli WK6 periplasm, purified (IMAC Ni-NTA, dialysis)
B12: Nb2.22 (VHH)
VHH: QVQLVESGGGLVQAGGSLRLSCAASGATFITYGMTWFRQAPGKEREFVAAVTGNGAGTTYLPSVKGRFTISRDNAKNTVYLQMSSLKPEDTAVYYCGGRRWVPATAVDQVAYWGQGTQVTVSS
notes: Labelled with 99mTc through its His tag for the biodistribution test only; also called R3-22; group G2; source: E. coli WK6 periplasm, purified (IMAC Ni-NTA, dialysis; size exclusion chromatography for the later tests); not shown: His6, C-terminal, kept
B13: Nb13.12 (VHH)
VHH: QVQLVESGGGLVQDEGSLRLSCAASGLIFSNYIVGWFRQTPGKEREFVAAIRWGGTSSYYSDSVKGRFTVSRDNAKNTLYLQMNNLKPEDTAVYYCATGPYYRGDYRVPDNMDYWGKGTQVTVSS
notes: also called R3-12; group G13; source: E. coli WK6 periplasm, purified (IMAC Ni-NTA, dialysis)
B14: Nb11.20 (VHH)
VHH: QVQLVESGGGLVQTGGSLRLSCAASGRTVSSYRMGWFRQAPGKEREFVCMITRSGFKTYCNDSVKGRFTISRDVAVNTVNLQMNSLKPEDTADYYCAATERWGTTATMTTANDYDYWGQGTQVTVSS
notes: also called R2-20; group G11; source: E. coli WK6 periplasm, purified (IMAC Ni-NTA, dialysis)
B15: Nb11.16 (VHH)
VHH: QVQLVESGGGLVQAGGSLRLSCVASGGTFSNYRMAWFRQAPGKEREFVSLITRSGGSTYYADSVKGRFTISRDNAKNTVSLQMNTLKPEDTAVYTCAATPRFDSYSNYIRTNGYDYWGQGTQVTVSS
notes: also called R3-16; group G11; source: E. coli WK6 periplasm, purified (IMAC Ni-NTA, dialysis)
B16: Nb11.28 (VHH)
VHH: B15 VHH with G16A, V23A, K76Q, Y105G, N107Y, I109T
notes: also called R3-28; group G11; source: E. coli WK6 periplasm, purified (IMAC Ni-NTA, dialysis)
B17: Nb8.37 (VHH)
VHH: QVQLVESGGGLVQPGGSLRLSCAASGLTLDYLRIAWFRQAPGKKRERVSCISITEGSANYADSVKGRFTISRDNAKNTVFLQMNSLKPEDTAVYYCAARRYYCSGTPTDYAYWGQGTQVTVSS
notes: Labelled with 99mTc through its His tag for the biodistribution test only; also called R3-37; group G8; source: E. coli WK6 periplasm, purified (IMAC Ni-NTA, dialysis; size exclusion chromatography for the later tests); not shown: His6, C-terminal, kept
B18: Nb6.19 (VHH)
VHH: DVQLVESGGGLVQPGGSLRLSCAASGFTLSTYAMRWVRQAPGKGLEWVSDINSGGDVMSYRDSVKGRFTISRDDAKNTLYLQMNSLKPEDTAVYYCTNGWSRGQGTQVTVSS
notes: also called R2-19; group G6; source: E. coli WK6 periplasm, purified (IMAC Ni-NTA, dialysis)
B19: Nb6.3 (VHH)
VHH: B18 VHH with D1Q, L29F, T31S, S53K, D56S, V57G, M58T, W100G
notes: also called R3-3; group G6; source: E. coli WK6 periplasm, purified (IMAC Ni-NTA, dialysis)
B20: Nb14.70 (VHH)
VHH: QVQLVESGGGLVQAGDSLSLVCTLPERSRFAVGWFRQASGKEREIVAAISWLGMNEYYGDSVKGRSTISRDNAKNTVRLQMDSLKREDTAVYYCAADYSLDNVRRTPRFWGQGTQVTVSS
B21: Nb 10.63 (VHH)
VHH: B6 VHH with S31D, N54S, Q100L, E113D
B22: Nb 7.24 (VHH)
VHH: QVQLVESGGGLVQPGGSLRLSCAASGFTLDYYAIGWFRQAPGKEREGVSCIASDGGSTKYADSVKGRFTISRDSAKNTVYLQMNSLKPEDTAIYYCAAGRPGYCSGYALKEIYPYRDWGQGTQVTVSS
B23: Nb 4.39 (VHH)
VHH: DVQLVESGGGLVQPGGSLRLSCAASGSNVDIATISWYRQGTGNQREFVAYITPRGNTLYGASVTGRFTISRDNAKNTVYLQMNSLRFDDTAVYYCNVARLGRNYWGQGTQVTVSS
B24: Nb6.39 (VHH)
VHH: B18 VHH with D1Q, L29F, S53Q, D56G, M58T, K65L, P88R, W100R
notes: also called R3-39; group G6; source: E. coli WK6 periplasm, purified (IMAC Ni-NTA, dialysis)

What follows are binders tested against T2, recombinant mouse Clec4F (CLEC4F/CLECSF13), soluble extracellular domain Ala65-Gly548 (Mus musculus, UniProt P70194) (assay: SPR; Biacore T200; 400 RU of recombinant mouse Clec4F coupled to a CM5 chip; nanobodies flown at 30 ul/min at 1-400 nM; 1:1 binding model). Conditions: both partners purified.
T2 construct: Clec4F (C-type lectin domain family 4, member F), mouse, soluble extracellular domain Ala65-Gly548; the oligomeric state of the bought protein was not measured here; also called mClec4F; mouse Kupffer cell receptor Clec4F; source: bought: R&D Systems (NS0-derived, mouse myeloma cell line)

| binding result | Binder |
| --- | --- |
| binds | B1 |
| binds | B2 |
| binds | B3 |

Target: T2, recombinant mouse Clec4F …
Assay: as above
Conditions: both partners purified
Remark: another data set of the same source

| Kd [nM] | koff [s⁻¹] | kon [M⁻¹ s⁻¹] | Binder |
| --- | --- | --- | --- |
| 0.51 | 0.000756 | 1.48e+06 | B4 |
| 0.618 | 0.00475 | 7.69e+06 | B5 |
| 0.484 | 0.00223 | 4.62e+06 | B6 |
| 0.174 | 0.00158 | 9.08e+06 | B7 |
| 0.524 | 0.000825 | 1.58e+06 | B8 |
| 0.314 | 0.00135 | 4.28e+06 | B9 |
| 26.7 | 0.0317 | 1.19e+06 | B10 |
| 2 | 0.00231 | 1.16e+06 | B11 |
| 0.269 | 0.00221 | 8.24e+06 | B12 |
| 1.11 | 0.0031 | 2.79e+06 | B13 |
| 0.403 | 0.00139 | 3.46e+06 | B14 |
| 0.169 | 0.00392 | 2.32e+07 | B15 |
| 1.2 | 0.00654 | 5.43e+06 | B16 |
| 0.79 | 0.00124 | 1.57e+06 | B17 |
| 0.47 | 0.000612 | 1.3e+06 | B18 |
| 0.296 | 0.000848 | 2.87e+06 | B19 |

The binders below were run against T1, recombinant mouse Clec4F (CLEC4F/CLECSF13), soluble extracellular domain Ala65-Gly548 (mouse) in the same assay as above. Conditions: not given.

| koff [s⁻¹] | kon [M⁻¹ s⁻¹] | Binder |
| --- | --- | --- |
| 0.0606 | 3.06e+07 | B20 |

What follows are binders tested against Nb3.60 (alpaca (Vicugna pacos)) (assay: SDS-PAGE; 10% SDS-PAGE with Coomassie staining of the nanobody preparations after IMAC and dialysis). Conditions: not given.

| stoichiometry N | Binder |
| --- | --- |
| 2 | B5 |

These binders were tested against Nb1.46 (alpaca (Vicugna pacos)) in the same assay as above. Conditions: not given.

| stoichiometry N | Binder |
| --- | --- |
| 2 | B1 |

What follows are binders tested against T2, recombinant mouse Clec4F … (assay: not given). Conditions: not given.

| binding result | Binder |
| --- | --- |
| binds | B21 |
| binds | B22 |
| binds | B23 |

The binders below were run against T2, recombinant mouse Clec4F … (assay: SPR; epitope binning: Clec4F immobilised on the chip; 1st nanobody injected (50 nM) to saturation, then a mix of 1st and 2nd nanobody; extra RU read). Conditions: both partners purified.

| binding result | Binder |
| --- | --- |
| binds | B24 |
